Literature values, collected in paper PMC3265123.
Like-named read-outs stand apart in the source and are kept apart here.

Key:
[1] = target: gC1qR (Homo sapiens) (UniProt Q07021)
[2] = target: gC1qR (Homo sapiens) (UniProt Q07021); remark: listed apart in the source

Sequence of UniProt Q07021 (Q07021 74-282): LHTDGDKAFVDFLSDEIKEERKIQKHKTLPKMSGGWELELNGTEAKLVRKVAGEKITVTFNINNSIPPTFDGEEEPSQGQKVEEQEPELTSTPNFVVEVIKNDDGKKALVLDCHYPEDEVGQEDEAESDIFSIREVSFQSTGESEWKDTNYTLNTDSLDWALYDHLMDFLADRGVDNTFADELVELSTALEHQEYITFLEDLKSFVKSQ

Substance: high molecular weight kininogen (from UniProt P01042)
- Kd [1]: 0.8 nM
- Kd [2]: 9 nM
